Data on one molecule can be found in patent US7122636.

For this assay, the target named is recombinant human IL-8, (ser-IL-8)72 (human, UniProt P10145 28-99). The assay is described as follows: inhibition of 125I-IL-8 binding to neutrophils.

B1: humanized 6G425 F(ab)-9 (humanized 6G4V11 Fab) (Fab, V domains shown)
VH: EVQLVQSGGGLVQPGGSLRLSCAASGYSFSSHYMHWVRQAPGKGLEWVGYIDPSNGETTYNQKFKGRFTLSRDNSKNTAYLQMNSLRAEDTAVYYCARGDYRYNGDWFFDVWGQGTLVTVSS
VL: DIQMTQSPSSLSASVGDRVTITCRSSQSLVHGIGNTYLHWYQQKPGKAPKLLIYKVSNRFSGVPSRFSGSGSGTDFTLTISSLQPEDFATYYCSQSTHVPLTFGQGTKVEIKR
In general, IC50 refers to the concentration needed to halve the response being measured. For B1, the IC50 turned out to be 4.9 nM.
